According to patent publication US20050142568A1 (published 2005):

T1: ^35S-Methionine labeled CRN-6 (C. elegans, UniProt P34508-2 18-373, limits assumed, 35S-methionine labelled)
T1 sequence (looked up): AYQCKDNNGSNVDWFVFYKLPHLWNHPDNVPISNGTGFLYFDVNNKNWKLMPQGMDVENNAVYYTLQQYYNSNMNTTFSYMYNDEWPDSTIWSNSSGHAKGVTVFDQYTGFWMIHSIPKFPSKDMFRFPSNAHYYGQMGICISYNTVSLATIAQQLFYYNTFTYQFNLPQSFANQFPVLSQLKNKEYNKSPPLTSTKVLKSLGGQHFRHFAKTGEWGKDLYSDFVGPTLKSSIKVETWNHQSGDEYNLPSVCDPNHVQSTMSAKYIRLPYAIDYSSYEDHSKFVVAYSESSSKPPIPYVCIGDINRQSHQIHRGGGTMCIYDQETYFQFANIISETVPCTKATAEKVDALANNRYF

T2: ^35S-Methionine labeled CRN-3 (C. elegans, UniProt G5EBX6 1-876)
T2 sequence: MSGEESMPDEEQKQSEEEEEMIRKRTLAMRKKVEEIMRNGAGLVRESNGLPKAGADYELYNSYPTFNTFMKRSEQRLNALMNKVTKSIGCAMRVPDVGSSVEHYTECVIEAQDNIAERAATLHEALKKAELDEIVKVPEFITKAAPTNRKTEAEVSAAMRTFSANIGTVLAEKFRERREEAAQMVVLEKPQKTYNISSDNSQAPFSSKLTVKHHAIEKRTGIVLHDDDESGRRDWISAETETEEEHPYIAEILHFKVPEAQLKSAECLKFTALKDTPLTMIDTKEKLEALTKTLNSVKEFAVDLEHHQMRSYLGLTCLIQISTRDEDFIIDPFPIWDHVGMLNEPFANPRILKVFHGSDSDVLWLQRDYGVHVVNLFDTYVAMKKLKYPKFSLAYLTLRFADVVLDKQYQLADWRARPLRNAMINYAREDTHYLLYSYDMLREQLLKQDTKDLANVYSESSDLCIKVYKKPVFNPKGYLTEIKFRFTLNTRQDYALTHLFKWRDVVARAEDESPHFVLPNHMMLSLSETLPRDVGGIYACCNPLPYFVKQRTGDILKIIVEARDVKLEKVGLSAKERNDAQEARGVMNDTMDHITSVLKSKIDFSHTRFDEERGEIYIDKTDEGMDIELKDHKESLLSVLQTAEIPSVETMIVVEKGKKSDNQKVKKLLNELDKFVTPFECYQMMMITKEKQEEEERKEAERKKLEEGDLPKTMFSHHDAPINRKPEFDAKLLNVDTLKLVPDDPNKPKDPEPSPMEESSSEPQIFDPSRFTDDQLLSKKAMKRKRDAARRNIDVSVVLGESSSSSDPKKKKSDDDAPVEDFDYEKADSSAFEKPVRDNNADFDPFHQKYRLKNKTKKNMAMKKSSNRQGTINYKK

T3: GST-CRN-3 (C. elegans, UniProt G5EBX6 1-876)
T3 construct: also called CRN-3 GST-fusion protein; not shown: glutathione S-transferase tag encoded by vector pGEX4T-2
T3 sequence: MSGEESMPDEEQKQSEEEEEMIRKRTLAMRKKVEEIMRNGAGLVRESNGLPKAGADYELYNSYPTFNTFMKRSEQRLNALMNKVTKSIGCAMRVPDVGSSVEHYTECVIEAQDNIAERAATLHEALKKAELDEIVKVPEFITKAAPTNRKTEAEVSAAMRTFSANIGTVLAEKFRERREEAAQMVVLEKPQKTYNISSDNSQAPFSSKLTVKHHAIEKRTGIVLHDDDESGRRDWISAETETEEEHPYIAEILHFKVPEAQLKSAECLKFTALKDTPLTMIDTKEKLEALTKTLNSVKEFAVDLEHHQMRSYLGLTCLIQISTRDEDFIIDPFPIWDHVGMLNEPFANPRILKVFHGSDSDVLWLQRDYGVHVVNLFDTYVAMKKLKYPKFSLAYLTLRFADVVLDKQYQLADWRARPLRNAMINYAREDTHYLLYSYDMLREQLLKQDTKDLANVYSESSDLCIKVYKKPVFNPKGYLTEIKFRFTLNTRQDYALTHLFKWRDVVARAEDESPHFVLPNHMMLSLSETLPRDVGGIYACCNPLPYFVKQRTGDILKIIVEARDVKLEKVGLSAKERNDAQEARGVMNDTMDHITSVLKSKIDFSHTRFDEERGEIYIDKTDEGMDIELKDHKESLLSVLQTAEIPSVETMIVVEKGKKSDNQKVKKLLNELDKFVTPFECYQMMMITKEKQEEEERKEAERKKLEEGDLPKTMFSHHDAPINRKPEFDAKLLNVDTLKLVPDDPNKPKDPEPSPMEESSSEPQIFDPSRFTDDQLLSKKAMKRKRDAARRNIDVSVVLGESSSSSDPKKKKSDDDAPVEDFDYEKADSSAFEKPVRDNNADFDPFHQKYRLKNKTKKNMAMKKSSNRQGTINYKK

T4: GST-NUC-1 (C. elegans, UniProt Q17778 22-375)
T4 construct: also called NUC-1 GST-fusion protein; not shown: glutathione S-transferase tag encoded by vector pGEX4T-2
T4 sequence (looked up): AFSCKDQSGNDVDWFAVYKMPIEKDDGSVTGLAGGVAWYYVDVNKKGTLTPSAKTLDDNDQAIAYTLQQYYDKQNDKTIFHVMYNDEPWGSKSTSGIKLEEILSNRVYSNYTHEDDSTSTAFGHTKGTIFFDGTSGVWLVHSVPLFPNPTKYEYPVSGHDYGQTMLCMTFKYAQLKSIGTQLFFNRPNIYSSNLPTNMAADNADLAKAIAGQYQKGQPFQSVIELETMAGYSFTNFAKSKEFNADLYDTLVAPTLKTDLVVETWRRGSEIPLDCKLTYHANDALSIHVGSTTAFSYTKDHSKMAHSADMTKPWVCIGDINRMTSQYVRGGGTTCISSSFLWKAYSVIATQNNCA

T5: ^35S-Methionine labeled NUC-1 (C. elegans, UniProt Q17778 22-375, 35S-methionine labelled)
T5 sequence (looked up): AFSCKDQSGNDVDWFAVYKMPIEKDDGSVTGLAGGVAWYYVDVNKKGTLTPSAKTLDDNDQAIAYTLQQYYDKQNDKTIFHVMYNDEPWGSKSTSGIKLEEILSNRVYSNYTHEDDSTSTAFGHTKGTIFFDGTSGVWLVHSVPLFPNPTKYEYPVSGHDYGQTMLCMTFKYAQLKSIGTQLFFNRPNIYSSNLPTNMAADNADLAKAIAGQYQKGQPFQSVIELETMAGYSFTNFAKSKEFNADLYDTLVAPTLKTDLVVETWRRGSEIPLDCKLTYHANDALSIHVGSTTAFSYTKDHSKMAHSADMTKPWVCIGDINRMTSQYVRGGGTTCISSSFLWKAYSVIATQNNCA

B1: GST-CPS-6 (other, C. elegans, UniProt Q95NM6 1-308, looked up)
chain: MIGKVAGTAAIAGISFLAGKYSNDDLPIFRNVQSATNVPMNQIQVSEPMTVKPASLNADAMGPSRSAEIMKHGYPGFTNVRTYEDFVLSYDYKTRTAHWVCEHLTPERLKHAEGVDRKLCEFKPDITFPQKFLSQNTDYKCSGFDRGHLAAAGNHRKSQLAVDQTFYLSNMSPQVGRGFNRDKWNDLEMHCRRVAKKMINSYIITGPLYLPKLEGDGKKYIKYQVIGDNNVAVPTHFFKVALFEVTPGKFELESYILPNAVIEDTVEISKFHVPLDAVERSAGLEIFARLDPKSIVKENGAKKGGLLW
notes: GST at the N-terminus as in pGEX vectors; also called CPS-6 GST-fusion protein; not shown: glutathione S-transferase tag encoded by vector pGEX4T-2

Legend:
Assay in all cases: GST pull-down, 35S-Met protein vs GST fusion; - means no detectable binding (footnote a)
[1] = target: T1, ^35S-Methionine labeled CRN-6
Protocol: (§1) GST fusion protein pull-down assays were performed as described in J. Parrish, H. Metters, L. Chen, D. Xue, Proc. Natl. Acad. Sci. U.S.A. 97, 11916 (2000). Purified GST or GST-fusion proteins (5 μg each) immobilized on glutathione sepharose beads were incubated with ³⁵S-Methionine labeled proteins at 4° C. for 2 hours. The beads were washed extensively and the bound proteins were resolved on a 12% SDS-PAGE and visualized by autoradiography. [0103] cDNAs corresponding to the ORFs were cloned into the pPD129.36 vector via its Nhe I and Xho I sites or the Xho I site alone. Full-length cDNAs were subcloned into the pGEX4T-2 vector for generating GST fusion proteins and for further protein purification and into the pcDNA3.1 vector for in vitro transcription/translation experiments.
(§2) ^aInteractions were evaluated relative to background binding of ³⁵S-Methionine labeled Luciferase to GST-fusion proteins and ³⁵S-Methionine labeled proteins to GST. “−” indicates no detectable binding, “+” indicates an interaction consistently observed above background levels, and “++” indicates a strong interaction. ^bBecause ³⁵S-Methionine labeled CRN-1 binds GST tightly, it was not possible to evaluate interactions between ³⁵S-CRN-1 and various GST-fusion proteins. ND, not determined.

[2] = target: T2, ^35S-Methionine labeled CRN-3
Protocol: as §1, §2

GST-CRN-3 = target: T3, GST-CRN-3
Protocol: as §1, §2

GST-CRN-6 = target: T6, GST-CRN-6 (C. elegans, UniProt P08515 1-218 = GST; P34508 1-373)
T6 construct: Two crn-6 cDNAs (700 bp and 1.1 kb) were isolated; the longer one made the GST fusion; also called CRN-6 GST-fusion protein
Protocol: as §1, §2

GST-CPS-6 = target: B1
Protocol: as §1, §2

GST-NUC-1 = target: T4, GST-NUC-1
Protocol: as §1, §2

[3] = target: T5, ^35S-Methionine labeled NUC-1
Protocol: as §1, §2

Row | binding result [1] | binding result [2] | binding result (GST-CRN-3) | binding result (GST-CRN-6) | binding result (GST-CPS-6) | binding result (GST-NUC-1) | binding result [3] | Binder
1 | no binding | no binding | – | – | – | – | – | GST-CRN-4 (other, C. elegans, UniProt Q10905 1-298, looked up, also called CRN-4 GST-fusion protein; not shown: glutathione S-transferase tag encoded by vector pGEX4T-2) MAYQHCPFDTLLILDFETTSDAANQDYPCEVIQFAIVAYDVPNDKIREDISFNKYVKPVLNRTLTKNCVDFTGIPQRSIDTADTFDVVYEQFQQWLITLGLEEGKFAFVCDSRQDLWRIAQYQMKLSNIQMPAFFRQYINLYKIFTNEMDRMGPKELSATTNIGKMNEYYDLPTIGRAHDAMDDCLNIATILQRMINMGAKVTVNELLTCCASWRRQPLVYNKEWRSSFMDAGKIFERVLPLVVTTIRAGDFRLEMYGVCRYCRKGMDVCGTSHQQTPHDLYKNEEDPIHFAKIAGYY
2 | – | – | no binding | no binding | no binding | no binding | – | full-length ^35S-methionine labeled CPS-6 (enzyme, C. elegans, UniProt Q95NM6 1-308, looked up, 35S-methionine labelled, also called ^35S-CPS-6) MIGKVAGTAAIAGISFLAGKYSNDDLPIFRNVQSATNVPMNQIQVSEPMTVKPASLNADAMGPSRSAEIMKHGYPGFTNVRTYEDFVLSYDYKTRTAHWVCEHLTPERLKHAEGVDRKLCEFKPDITFPQKFLSQNTDYKCSGFDRGHLAAAGNHRKSQLAVDQTFYLSNMSPQVGRGFNRDKWNDLEMHCRRVAKKMINSYIITGPLYLPKLEGDGKKYIKYQVIGDNNVAVPTHFFKVALFEVTPGKFELESYILPNAVIEDTVEISKFHVPLDAVERSAGLEIFARLDPKSIVKENGAKKGGLLW
3 | no binding | no binding | – | – | – | – | no binding | B1
